From the supplement of paper PMC11246515
± gives the standard deviation of the averaged measurements.

Assay: total protein half-life in vivo (active degradation + dilution); higher = more stable protein
[1] = E. coli NCM3722 delta-hslV, growth: N-lim chemostat, doubling time 6 h
[2] = E. coli NCM3722 delta-smpB, growth: N-lim chemostat, doubling time 6 h
[3] = E. coli NCM3722 delta-clpP delta-lon delta-hslV, growth: N-lim chemostat, doubling time 6 h
[4] = E. coli NCM3722 delta-clpP, growth: N-lim chemostat, doubling time 6 h
[5] = wild type E. coli NCM3722, growth: C-lim chemostat, doubling time 12 h
[6] = wild type E. coli NCM3722, growth: N-lim chemostat, doubling time 6 h
[7] = wild type E. coli NCM3722, growth: P-lim chemostat, doubling time 12 h
[8] = E. coli NCM3722 delta-lon, growth: N-lim chemostat, doubling time 6 h
[9] = wild type E. coli NCM3722, growth: C-lim chemostat, doubling time 3 h
[10] = wild type E. coli NCM3722, growth: C-lim chemostat, doubling time 6 h
[11] = wild type E. coli NCM3722, growth: N-lim chemostat, doubling time 12 h
[12] = wild type E. coli NCM3722, growth: P-lim chemostat, doubling time 6 h

Sequence | total protein half-life in vivo [1] | total protein half-life in vivo [2] | total protein half-life in vivo [3] | total protein half-life in vivo [4] | total protein half-life in vivo [5] | total protein half-life in vivo [6] | total protein half-life in vivo [7] | total protein half-life in vivo [8] | total protein half-life in vivo [9] | total protein half-life in vivo [10] | total protein half-life in vivo [11] | total protein half-life in vivo [12]
MMNPVLWLQMTNMISYQGLVRTFLNKNDLKAFIAFPSSLYPDDPNWIPPLFIERNEHLSAKNPGTDHIIWQAWVAKKAGQIVGRITAQIDTLHRERYGKDTGHFGMIDAIDDPQVFAALFGAAEAWLKSQGASKISGPFSLNINQESGLLIEGFDTPPCAMMPHGKPWYAAHIEQLGYHKGIDLLAWWMQRTDLTFSPALKKLMDQVRKKVTIRCINRQRFAEEMQILREIFNSGWQHNWGFVPFTEHEFATMGDQLKYLVPDDMIYIAEIDSAPCAFIVGLPNINEAIADLNGSLFPFGWAKLLWRLKVSGVRTARVPLMGVRDEYQFSRIGPVIALLLIEALRDPFARRKIDALEMSWILETNTGMNNMLERIGAEPYKRYRLYEKQI | 2.23 h | 3.38 h |  |  |  |  |  |  |  |  |  | 
MRFIIRTVMLIALVWIGLLLSGYGVLIGSKENAAGLGLQCTYLTARGTSTVQYLHTKSGFLGITDCPLLRKSNIVVDNG [Q2MB16] |  | 6.03 ± 1.1 h | 7.32 ± 0.77 h | 6.25 h | 14 ± 1.4 h | 5.45 h | 14 ± 2.2 h |  |  |  |  | 
MSLSRTQIVNWLTRCGDIFSTESEYLTGLDREIGDADHGLNMNRGFSKVVEKLPAIADKDIGFILKNTGMTLLSSVGGASGPLFGTFFIRAAQATQARQSLTLEELYQMFRDGADGVISRGKAEPGDKTMCDVWVPVVESLRQSSEQNLSVPVALEAASSIAESAAQSTITMQARKGRASYLGERSIGHQDPGATSVMFMMQMLALAAKE | 4.36 ± 0.067 h | 4.23 ± 0.14 h | 4.62 ± 0.54 h | 4.25 ± 0.72 h | 9.74 ± 0.25 h | 4.432 ± 0.04 h | 11.8 ± 0.41 h | 4.75 ± 0.52 h | 2.93 ± 0.12 h | 5.43 ± 0.13 h | 7.23 ± 0.11 h | 4.75 ± 1.6 h
MTSLYLASGSPRRQELLAQLGVTFERIVTGIEEQRQPQESAQQYVVRLAREKARAGVAQTAKDLPVLGADTIVILNGEVLEKPRDAEHAAQMLRKLSGQTHQVMTAVALADSQHILDCLVVTDVTFRTLTDEDIAGYVASDEPLDKAGAYGIQGLGGCFVRKINGSYHAVVGLPLVETYELLSNFNALREKRDKHDG | 3.17 ± 0.25 h | 3.26 ± 0.49 h | 4.55 ± 0.58 h | 3.38 ± 0.24 h | 8.84 ± 0.45 h | 3.15 ± 0.4 h | 11.9 ± 1.7 h | 3.02 h | 3.2 ± 0.29 h | 5.629 ± 0.034 h | 4.52 h | 5.41 h
MRGEFYQQLTNDLETARAEGLFKEERIITSAQQADITVADGSHVINFCANNYLGLANHPDLIAAAKAGMDSHGFGMASVRFICGTQDSHKELEQKLAAFLGMEDAILYSSCFDANGGLFETLLGAEDAIISDALNHASIIDGVRLCKAKRYRYANNDMQELEARLKEAREAGARHVLIATDGVFSMDGVIANLKGVCDLADKYDALVMVDDSHAVGFVGENGRGSHEYCDVMGRVDIITGTLGKALGGASGGYTAARKEVVEWLRQRSRPYLFSNSLAPAIVAASIKVLEMVEAGSELRDRLWANARQFREQMSAAGFTLAGADHAIIPVMLGDAVVAQKFARELQKEGIYVTGFFYPVVPKGQARIRTQMSAAHTPEQITRAVEAFTRIGKQLGVIA [P0AB77] | 4.78 ± 0.57 h | 4.39 ± 0.082 h | 5.66 ± 1.2 h | 4.59 ± 0.16 h |  | 4.55 ± 0.25 h | 11.11 ± 0.03 h | 4.56 ± 0.44 h | 3.46 ± 0.59 h | 5.66 ± 0.2 h | 6.84 ± 0.5 h | 6.03 ± 0.29 h
MKKIAAISLISIFIMSGCAVHNDETSIGKFGLAYKSNIQRKLDNQYYTEAEASLARGRISGAENIVKNDATHFCVTQGKKMQIVELKTEGVGLHGVARLTFKCGE | 6.67 ± 0.98 h | 6.04 ± 0.45 h |  | 5.75 ± 0.084 h | 11.3 ± 0.14 h | 6.8 ± 0.99 h |  |  | 3.03 ± 0.37 h | 5.62 ± 0.76 h | 13.1 ± 1.9 h | 
MGLCSRYKSLTCNSCSMHCQIMPEESPRLQYCANSCFCMWPEESSYFNRGVVEGILTKNHNARLSGYIFVDFSVSFLRLFLEKDWIDYLASTDMGIVLVSDRNMQSLANYWRKHNSAISAVIYNDDGLDVANEKIRQLFIGRYLSFTGGNTLTQMEFTIMGYMVSGYNPYQIAEVLDMDIRSIYAYKQRIEKRMGGKINELFIRSHSVQH |  |  | 4.5 ± 2.7 h |  |  |  |  |  |  |  |  | 
MKRLHKRFLLATFCALFTATLQAADVTITVNGRVVAKPCTIQTKEANVNLGDLYTRNLQQPGSASGWHNITLSLTDCPVETSAVTAIVTGSTDNTGYYKNEGTAENIQIELRDDQDAALKNGDSKTVIVDEITRNAQFPLKARAITVNGNASQGTIEALINVIYTWQ |  | 5.55 h |  |  |  |  |  |  |  |  |  | 
MTTLTARPEAITFDPQQSALIVVDMQNAYATPGGYLDLAGFDVSTTRPVIANIQTAVTAARAAGMLIIWFQNGWDEQYVEAGGPGSPNFHKSNALKTMRKQPQLQGKLLAKGSWDYQLVDELVPQPGDIVLPKPRYSGFFNTPLDSILRSRGIRHLVFTGIATNVCVESTLRDGFFLEYFGVVLEDATHQAGPKFAQKAALFNIETFFGWVSDVETFCDALSPTSFAHIA | 0.334 h | 0.441 h | 4.33 ± 0.13 h | 1.41 ± 0.23 h |  |  |  | 0.503 ± 0.025 h |  |  | 0.812 h | 
MEITEPRRLYQQLAADLKERIEQGVYLVGDKLPAERFIADEKNVSRTVVREAIIMLEVEGYVEVRKGSGIHVVSNQPRHQQAADNNMEFANYGPFELLQARQLIESNIAEFAATQVTKQDIMKLMAIQEQARGEQCFRDSEWDLQFHIQVALATQNSALAAIVEKMWTQRSHNPYWKKLHEHIDSRTVDNWCDDHDQILKALIRKDPHAAKLAMWQHLENTKIMLFNETSDDFEFNADRYLFAENPVVHLDTATSGSK [P0ACL2] | 1.94 ± 0.086 h | 2.12 ± 0.16 h | 5.59 ± 0.086 h | 4.22 ± 0.52 h | 5.16 ± 0.083 h | 1.97 ± 0.043 h | 4.91 ± 0.27 h | 2.4 ± 0.26 h | 1.97 ± 0.099 h | 3.7 ± 0.26 h | 2.59 ± 0.37 h | 2.99 ± 0.29 h
MTDLIQRPRRLRKSPALRAMFEETTLSLNDLVLPIFVEEEIDDYKAVEAMPGVMRIPEKHLAREIERIANAGIRSVMTFGISHHTDETGSDAWREDGLVARMSRICKQTVPEMIVMSDTCFCEYTSHGHCGVLCEHGVDNDATLENLGKQAVVAAAAGADFIAPSAAMDGQVQAIRQALDAAGFKDTAIMSYSTKFASSFYGPFREAAGSALKGDRKSYQMNPMNRREAIRESLLDEAQGADCLMVKPAGAYLDIVRELRERTELPIGAYQVSGEYAMIKFAALAGAIDEEKVVLESLGSIKRAGADLIFSYFALDLAEKKILR [P0ACB2] | 4.92 ± 0.25 h | 4.71 ± 0.18 h | 5.37 ± 0.27 h | 5.78 ± 1.1 h | 9.8 ± 1.4 h | 5.01 ± 0.34 h | 11.9 ± 0.21 h | 5.46 ± 0.23 h | 2.99 ± 0.082 h | 5.43 ± 0.14 h | 8.03 ± 0.4 h | 5.96 ± 0.23 h
MPYKTKSDLPESVKHVLPSHAQDIYKEAFNSAWDQYKDKEDRRDDASREETAHKVAWAAVKHEYAKGDDDKWHKKS [P0AE63] |  | 5.01 ± 2.3 h | 6.81 ± 0.52 h | 4.36 ± 0.59 h | 6.09 h | 3.3 ± 0.35 h | 7.39 ± 1.7 h | 5.1 ± 0.19 h |  | 5.53 h | 6.77 ± 0.7 h | 4.41 h
MIFLMTKDSFLLQGFWQLKDNHEMIKINSLSEIKKVGNKPFKVIIDTYHNHILDEEAIKFLEKLDAERIIVLAPYHISKLKAKAPIYFVSRKESIKNLLEITYGKHLPHKNSQLCFSHNQFKIMQLILKNKNESNITSTLNISQQTLKIQKFNIMYKLKLRRMSDIVTLGITSYF | 1.91 ± 0.33 h | 3.52 ± 0.093 h | 4.62 ± 0.1 h | 3.05 ± 0.11 h |  | 2.29 ± 0.07 h | 6.16 ± 0.74 h | 1.03 ± 0.022 h |  |  | 3.82 ± 0.15 h | 2.34 ± 0.054 h
MQENYKILVVDDDMRLRALLERYLTEQGFQVRSVANAEQMDRLLTRESFHLMVLDLMLPGEDGLSICRRLRSQSNPMPIIMVTAKGEEVDRIVGLEIGADDYIPKPFNPRELLARIRAVLRRQANELPGAPSQEEAVIAFGKFKLNLGTREMFREDEPMPLTSGEFAVLKALVSHPREPLSRDKLMNLARGREYSAMERSIDVQISRLRRMVEEDPAHPRYIQTVWGLGYVFVPDGSKA [P0AA16] | 5.25 ± 0.31 h | 4.73 ± 0.46 h | 5.29 ± 0.46 h | 6.03 ± 1.6 h | 10.3 ± 0.2 h | 4.67 ± 0.22 h | 11 ± 0.14 h | 6.35 ± 0.91 h | 3.32 ± 0.41 h | 5.849 ± 0.017 h | 8.55 ± 0.08 h | 5.66 ± 0.17 h
MSETASWQPSASIPNLLKRAAIMAEIRRFFADRGVLEVETPCMSQATVTDIHLVPFETRFVGPGHSQGMNLWLMTSPEYHMKRLLVAGCGPVFQLCRSFRNEEMGRYHNPEFTMLEWYRPHYDMYRLMNEVDDLLQQVLDCPAAESLSYQQAFLRYLEIDPLSADKTQLREVAAKLDLSNVADTEEDRDTLLQLLFTFGVEPNIGKEKPTFVYHFPASQASLAQISTEDHRVAERFEVYYKGIELANGFHELTDAREQQQRFEQDNRKRAARGLPQHPIDQNLIEALKVGMPDCSGVALGVDRLVMLALGAETLAEVIAFSVDRA [P0A8N7] | 3.95 h | 3.93 ± 0.61 h | 5.63 h | 4.37 h | 9.92 h | 3.34 h | 14.41 ± 0.11 h | 3.35 h | 2.71 ± 0.4 h | 6.14 h |  | 6.35 ± 0.51 h
MVSRYVPDMGDLIWVDFDPTKGSEQAGHRPAVVLSPFMYNNKTGMCLCVPCTTQSKGYPFEVVLSGQERDGVALADQVKSIAWRARGATKKGTVAPEELQLIKAKINVLIG [P0AE70] | 6.264 ± 0.046 h | 5.59 ± 0.098 h | 6.61 ± 0.43 h |  |  | 4.02 ± 0.46 h | 11 ± 0.37 h | 6.6 ± 0.43 h | 3.16 ± 0.28 h | 5.35 ± 0.39 h | 9.87 ± 1.7 h | 6.19 h
